T1: p23 (Homo sapiens, UniProt Q15185 1-160)
T1 sequence: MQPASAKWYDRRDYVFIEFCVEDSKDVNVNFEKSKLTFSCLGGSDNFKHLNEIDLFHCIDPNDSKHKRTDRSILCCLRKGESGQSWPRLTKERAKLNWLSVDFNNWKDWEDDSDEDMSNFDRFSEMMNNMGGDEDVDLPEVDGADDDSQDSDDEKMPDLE

B1: p21 20-mer DNA, unlabeled (dsDNA)
DNA 1: GAACATGTTCGAACATGTTC
DNA 2: GAACATGTTCGAACATGTTC
B2: p21 20-mer DNA, Cy5 (dsDNA)
DNA 1: GAACATGTTCGAACATGTTC
DNA 2: GAACATGTTCGAACATGTTC

Key:
p23 = target: T1, p23; assay: NMR DOSY
p53 DBD = p53 DBD (Homo sapiens, UniProt P04637 88-312); assay: fluorescence anisotropy
p53 DBD, sequence (P04637 88-312): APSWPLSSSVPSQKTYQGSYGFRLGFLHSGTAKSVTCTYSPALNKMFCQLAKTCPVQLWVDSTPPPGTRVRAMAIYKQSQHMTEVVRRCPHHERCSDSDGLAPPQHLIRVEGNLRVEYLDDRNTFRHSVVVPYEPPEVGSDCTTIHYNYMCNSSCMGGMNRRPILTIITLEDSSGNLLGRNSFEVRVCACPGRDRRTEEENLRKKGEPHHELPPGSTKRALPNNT

Binder | binding result (p23) | Kd (p53 DBD)
B1 | no binding | –
B2 | – | 0.045 ± 0.007 µM

— article PMC5811392
